{"source": "the DeepSol protein solubility set"}
{"test": "soluble on expression in E. coli; label from the status in PepcDB or PDB records"}
{"sequence": "MAEGGAADLDTQRSDIATLLKTSLRKGDTWYLVDSRWFKQWKKYVGFDSWDKYQMGDQNVYPGPIDNSGLLKDGDAQSLKEHLIDELDYILLPTEGWNKLVSWYTLMEGQEPIARKVVEQGMFVKHCKVEVYLTELKLCENGNMNNVVTRRFSKADTIDTIEKEIRKIFSIPDEKETRLWNKYMSNTFEPLNKPDSTIQDAGLYQGQVLVIEQKNEDGTWPRGPSTPNVKNSNYCLPSYTAYKNYDYSEPGRNNEQPGLCGLSNLGNTCFMNSAIQCLSNTPPLTEYFLNDKYQEELNFDNPLGMRGEIAKSYAELIKQMWSGKFSYVTPRAFKTQVGRFAPQFSGYQQQDCQELLAFLLDGLHEDLNRIRKKPYIQLKDADGRPDKVVAEEAWENHLKRNDSIIVDIFHGLFKSTLVCPECAKISVTFDPFCYLTLPLPMKKERTLEVYLVRMDPLTKPMQYKVVVPKIGNILDLCTALSALSGIPADKMIVTDIYNHRFHRIFAMDENLSSIMERDDIYVFEININRTEDTEHVIIPVCLREKFRHSSYTHHTGSSLFGQPFLMAVPRNNTEDKLYNLLLLRMCRYVKISTETEETEGSLHCCKDQNINGNGPNGIHEEGSPSEMETDEPDDESSQDQELPSENENSQSEDSVGGDNDSENGLCTEDTCKGQLTGHKKRLFTFQFNNLGNTDINYIKDDTRHIRFDDRQLRLDERSFLALDWDPDLKKRYFDENAAEDFEKHESVEYKPPKKPFVKLKDCIELFTTKEKLGAEDPWYCPNCKEHQQATKKLDLWSLPPVLVVHLKRFSYSRYMRDKLDTLVDFPINDLDMSEFLINPNAGPCRYNLIAVSNHYGGMGGGHYTAFAKNKDDGKWYYFDDSSVSTASEDQIVSKAAYVLFYQRQDTFSGTGFFPLDRETKGASAATGIPLESDEDSNDNDNDIENENCMHTN", "soluble on expression in E. coli": "soluble"}
{"sequence": "MSGGLLKALRSDSYVELSQYRDQHFRGDNEEQEKLLKKSCTLYVGNLSFYTTEEQIYELFSKSGDIKKIIMGLDKMKKTACGFCFVEYYSRADAENAMRYINGTRLDDRIIRTDWDAGFKEGRQYGRGRSGGQVRDEYRQDYDAGRGGYGKLAQNQ", "soluble on expression in E. coli": "soluble"}
{"sequence": "MSLTFSILARDPNNGRFGVAVATCHLAVGSTVPHIRSGVGAVATQAHTNPYLGICGLERLEHHADAQDVLNSLLLDDPQRDWRQFHLIDLDGRTACWTGVECGGWAGHRHHPNLSVAGNCLAGEVVLEAMEQTFLTSDPNWKLGRRLMTALQAGEQAGGDQRASSCTSAALQVSGEAAFPLLDLRVDFRSGAVEELMELYERSQDRWAQQWRDELLELPMLNRLVAEGHHHHHH", "soluble on expression in E. coli": "soluble"}
{"sequence": "MGSDKIHHHHHHMKLTILTDNRAAPGLTCEHGFAVLIETGGKRILFDTGQLTAIDANCRALGIDLSDIDIIVLSHGHYDHTGNLADVLRIADRATLYLHPSALIERYSIRNDKPKPIDMPETAKQAINGLPKERVVWVTEPTRLTDGAFLTGPVPRQTTFEDTGGPFFFDPDGKTPDPIEDDLSLWIEKPEGLIVLAGCCHAGIVNTLDYIESITGQKRIATLIGGMHLSAASPERLNRTVASLANRDISRLIACHCTGQAAVERFSKELPYPVEAGYAGMVVESANE", "soluble on expression in E. coli": "not soluble"}
{"sequence": "MAHHHHHHMKPKMRRESAQPCLTCMPAILNKSVCPIHKIYSDNTLLLFMVIDCYNKMCSKKISTRNANDYKKLWNDNKLLICYSHGVLFHMHTRTSKTCFPQNYFSSNNDNCECGVHQVRFKTLKAQVHIIIPAILTGTTIV", "soluble on expression in E. coli": "not soluble"}
{"sequence": "MNSLSTEQLGIGYGDRVIVEDLNISIPKGKITTLIGPNGCGKSTILKTMSRIMRSHAGAVYLNGKAIHKMSTKDIAKDMAILPQTPEAPSGLTVHELVSYGRFPHQSGFGRLNDEDRRIIKWALEETGMAEYAERPIEALSGGQRQRVWIAMALAQGTELLLLDEPTTYLDLAHQLEILQLLDRLNKEQGRTILMVIHDLNHAARFSHYMIALKKGTVIKEGTALEVMTPDILKQVFQIDAEIVTDPRTNKPVCLTYDLIKNEKELVTV", "soluble on expression in E. coli": "not soluble"}
{"sequence": "MGSDKIHHHHHHMIIEHARDMLKRERLFFDKIQAHIGEVNGTISIGCSSLIGQTLLPEVLSLYNSQFPNVEIQVQVGSTEQIKAHHRDYHVMITRGNKVMNLSNTHLFNDEHYFIYPKDRKEDVTKLPFIEFQADPIYINQIKQWYNDHLGHDYHATITVDQVATCKEMLLSGVGVTILPKIMMKNIDKNMFEFEKVTIDKKPLIRSTYMSYDASMLQLPQVDAFVNLMLNFIR", "soluble on expression in E. coli": "not soluble"}
{"sequence": "MGSDKIHHHHHHPNDPIIYKKEGGAFLWLGDTAWELFHVLDKEEIVHYLDNRQEKGFTVIQAVILSELDGLDKPNAYGYLPLVDKDPTQITEGYFELVDFVIREAGKRGMYIGLLPTWANNVVEKDGNPALFNPDNAYTYGKILGTRYKNEAVIWILGGDRNVVTDKEFEIWQSMAKGIQEGNGGTQLMSYHPTGEISSHYWFHNESWLSFNILQSGHYRRMDPVYRFSGMYAQLNPIKPFVNAEPSYEDIPVLFWEYFDYAKFGKKKEDIIGDNGLIKDTTYFTDGIYDDYDIRMQAYWTYFSGAAGYTYGNNAIWQMYKPGGKYHVPCLTFWDGALDRPGAECMRYVKSLFTMYPLDRFRPDLSVLFGINYNDASYITPVLAKDKTFILVYLSQGQDVRIQMSKLRSLGKAYWFNPRNGARTLIGPVENKGIRTFNAPGEAGERGNDWILILEADDR", "soluble on expression in E. coli": "not soluble"}
{"sequence": "MTYRVKIHKQVVKALQSLPKAHYRRFLEFRDILEYEPVPREKFDVIKLEGTGDLDLYRARLGDYRVIYSVNWKDKVIKILKLKPRGRAYK", "soluble on expression in E. coli": "soluble"}
{"sequence": "MAHHHHHHMSKAVQQIFEDYNRSRAQFTQSIYDMCLKAHHMEVIISTDIIMLLRPLILDKVPIVQQNATQILGKMASHSEEVALTILQNDVLPHLVYCLKHENKNYRKNCANTLRCLASHNAKLANLVAEEENCIDNLVDSLDEYDVRLKEACLNALCAIGKHDVDLSKQLMAKGIIPLVILSLQEKDTNLVRSSLNILTELSKHTNEIAKEVVDNNALPHLIKFLDHTDVQVKRYACNCLAQIAKHKEELTELIIESDVFPRVIYLLNDSDDVVKKNCANCLKEMSKHNEDICKIIARAGSLPFLCECIEQSSKGAVKLPAILCIGFIASFSESLSLNIILSNAIPILKKCLIGEEEDYIKASCVWAVGNIGKHSSSHAKKLSDENLLIILVNLYNANDSSDDLKKKVKLSFKGVIQKVTDLESLEPVFLKATAKLAKYCICQFAKIIPKSPAHKKAFIKSGCLKRLQVGRQSSCAIFPRCRVTVLPPYRPSAHPCTPSPLHRK", "soluble on expression in E. coli": "not soluble"}
{"sequence": "MSLDMKTTHTSLPFAGHTLHFVEFDPASFREQDLLWLPHYAQLQHAGRKRKTEHLAGRIAAIYALREYGYKCVPAIGELRQPVWPAGVYGSISHCGTTALAVVSRQPIGIDIEEIFSAQTARELTDNIITPAEHKRLADCGLAFPLALTLAFSAKESAFKASEIQTDADFLDYQIISRNKQQVIIHRENEMFAVHWQIKEKIVITLCQHDEGHHHHHH", "soluble on expression in E. coli": "soluble"}
{"sequence": "MAHHHHHHMNSGYPGPSGITVGSPGLPPGSLGSPFPEQMTSAHSSDGMQGSNASQVPLTIHADVDQHSKSHSPTLTSGVEVLFATHQPPVAGVNAPWDEDDDWSTPGAPAQHPASVGAPAKPPLPPGNNAPPPILIAEQMNPGSPAEPHPTPVAMSPPPSSDGFIASSSRAGSPNCPPTPLEKPSAANVAKVDALMKQIASRTAAMDAATKEKEMKIVTAAQEYLKALMAKRGEEVMNAKAIHKEEQQVGAEKINEHKKSGDVWSAVGLLVDLQKPNQYSRSTEQMRTVLSALNATPAKK", "soluble on expression in E. coli": "soluble"}
{"sequence": "MSLNWMELSIVVNHEVEYDVTEILESYGSNGVVIEDSNILEEQPVDKFGEIYDLNPEDYPEKGVRLKAYFNEFTYNENLKSNINYEILSLQQIDKTIYDYQEKLIAEVDWENEWKNYFHPFRASKQFTIVPSWESYVKENDNELCIELDPGMAFGTGDHPTTSMCLKAIETFVKPTDSVIDVGTGSGILSIASHLLGVQRIKALDIDEMAVNVAKENFKKNHCDDAIEAVPGNLLKNENEKFNIVIANILAHIIEEMIEDTYNTLIEDGYFITSGIIEEKYQDIESQMKRIGFKIISVEHDNGWVCIVGQKVSEGHHHHHH", "soluble on expression in E. coli": "soluble"}
{"sequence": "AHHHHHHASAKWVCKICGYIYDEDAGDPDNGISPGTKFEELPDDWVCPICGAPKSEFEKLEDGSEKVDRIIQMEIGRINSHLPKARKSLCELLKEDSPSIELRDGSLHYFRRSELEFLKTLAGEEACLVKLPIILELSTLDRGYFVVRGRGEVRVIKKLLELSEDIYLEENTVRLPRYYLPTIRRKLPTTTVYAFITEW", "soluble on expression in E. coli": "soluble"}
{"sequence": "MMKKSSDCTEILVGKAASMDGSTIVARNEDGYGPINPIKFVVHPAVDQTGASFTSAVTGVEVPLPDHAYRYTGTPQADQSDGQYEEAGINELNVGMSATETTATNARVLGYDPLVDDGINEEAMITLVLPYIKSAKEGAARLGALIEKYGTGESNSIAFNDQNDVWYLETAGGHHWAAMRLPEDTYAIAPNQTLMQTVDLQDTDNFLVASDLVDFVAQHHLNPTPDTFNFREIFGTHGEDDAYYNTPRTWYGQKLFNPEITDQQPTDQDMPFTRKPAKKLAIEDVQFFLSSHYNGTPYDPFGTYASGSAADQRKYRPIAMDRNQCSSILQIRNDVPADHAAIQWIAMGFFAYAPYVPFFTNITDTPADYQSTTAAVDVANVYWLNKTLSVLIEPHFHDYVEAVNAFRDGCQSYARSRVAATDAAVSGNVSAFLTQSNQITAGEISKRTRELFDTIVKHGLLLSKTAWEKGQNL", "soluble on expression in E. coli": "not soluble"}
{"sequence": "MNKHQKPVLTGQRFKTRKRDEKEKFEPTVFRDTLVQGLNEAGDDLEAVAKFLDSTGSRLDYRRYADTLFDILVAGSMLAPGGTRIDDGDKTKMTNHCVFSANEDHETIRNYAQVFNKLIRRYKYLEKAFEDEMKKLLLFLKAFSEAEQTKLAMLSGILLGNGTLPATILTSLFTDSLVKEGIAASFAVKLFKAWMAEKDANSVTSSLRKANLDKRLLELFPVNRQSVDHFAKYFTDAGLKELSDFLRVQQSLGTRKELQKELQERLSQECPIKEVVLYVKEEMKRNDLPETAVIGLLWTCIMNAVEWNKKEELVAEQALKHLKQYAPLLAVFSSQGQSELVLLQKVQEYCYDNIHFMKAFQKIVVLFYKADVLSEEAILKWYKEAHAAKGKSVFLDQMKKFVEWLQNAEEESESEGEES", "soluble on expression in E. coli": "soluble"}
{"sequence": "GMTSPSIESGARERTRRAILDAAMLVLADHPTAALGDIAAAAGVGRSTVHRYYPERTDLLRALARHVHDLSNAAIERADPTSGPVDAALRRVVESQLDLGPIVLFVYYEPSILADPELAAYFDIGDEAIVEVLNRASTERPEYPPGWARRVFWALMQAGYEAAKDGMPRHQIVDAIMTSLTSGIITLPRT", "soluble on expression in E. coli": "soluble"}
{"sequence": "MDALVSTKANSIAYQRSTVIIPAYNEEKRLMPVLYELCEYIRSNSLEWKVMVSIDGDDGTESNVKIMMQEYSFLSYSKGKGRGGKGAAIKRAITSATGEFVILMDADGSVPLKEIVKALDLTNYYDLIIFDRYSNRGNRIPFIRRFPSRGFNKLVRIFLGLKINDTQCGYKIIKREYAQRAFNKITISNAFFDVALLYYLKKERAKYIEIPVEYNYDRNSKFHVVELVLGEGISLIAFRIRNSRFYKYVPEKLISLYYRKFRWILEHHHHHH", "soluble on expression in E. coli": "soluble"}
{"sequence": "MGHHHHHHSHMTECRKSVPCGWERVVKQRLFGKTAGRFDVYFISPQGLKFRSKSSLANYLHKNGETSLKPEDFDFTVLSKRGIKSRYKDCS", "soluble on expression in E. coli": "not soluble"}
{"sequence": "MSLNRVFIVDDDTLTCNLLKTIVEPIFGNVEAFQHPRAFLTLSLNKQDIIILDLMMPDMDGIEVIRHLAEHKSPASLILISGYDSGVLHSAETLALSCGLNVINTFTKPINTEVLTCFLTSLSNRQAQRELVSFNNDKANQGKFDFIPTEQDLREAIDKKQLILYYQPQINMKTECLHGAEVLVRWLHPEFGLIYPDKFIALAEQTGLIEQLSEEVIHLAIKQSVHWQKLNRATRLSINISAQNITSLKLPEQLRMLVKKYEIDPSMIVLELTESALMDSEVTSLDIFTRFRLKGFQLSIDDFGTGYSSLSQLHKIPFTELKIDQSFVTNMKQEKESMAIVETCIMLAHKLNMEAVAEGIEDKETWDLLSAEGCDIAQGYYIARPMPADQFDKWQFNEGHHHHHH", "soluble on expression in E. coli": "soluble"}
